Measured values as given in patent US20240360218A1.

Target: human PD-L1 (hPD-L1), full length, expressed on cells (human) (UniProt Q9NZQ7)
Test: flow cytometry, AlexaFluor647-labelled antibody (5 ug/mL per p-1191) on monocyte-derived dendritic cells

Sequence of human PD-L1 (hPD-L1), full length, expressed on cells (human) (Q9NZQ7 19-290 limits assumed): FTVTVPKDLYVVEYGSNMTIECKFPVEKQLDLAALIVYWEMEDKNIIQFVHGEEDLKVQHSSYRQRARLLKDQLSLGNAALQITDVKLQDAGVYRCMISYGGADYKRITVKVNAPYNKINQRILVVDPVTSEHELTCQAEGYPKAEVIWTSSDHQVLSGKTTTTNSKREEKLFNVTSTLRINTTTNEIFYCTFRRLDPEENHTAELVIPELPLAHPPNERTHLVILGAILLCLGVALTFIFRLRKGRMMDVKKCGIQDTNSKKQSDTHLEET

Geometric Mean : R1-A: 379
Substance: Isotype hu IgG1 (D107) (antibody)
